Changes are numbered by the printed parent chain. A value given as a limit tells only on which side of the number the result lay.

These results are taken from patent publication US20250387450A1 (AIKIUM, published 2025).

Test [1] has as its target T1, KAAG1 disordered region peptide, PGAAAAHLPRWPPPQLAASRREA (biotin label).
T1 construct: also called KAAG1 Peptide
T1 peptide: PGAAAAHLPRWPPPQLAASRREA
Nature of the test: modified sandwich ELISA, grade by the table's key. Here is the method: (§1) Binder proteins were coated on the surface of a high binding capacity 96 well plate by incubating 100 μL of protein at 5 μg/mL in a coating solution (10 mM Tris pH 8.8, 50 mM NaCl), overnight at 4 C. The next morning, the coating solution was aspirated out and wells were washed once with 300 μL ELISA wash buffer (1×PBS, 0.05% Tween-20) and solution was aspirated out. The wells were blocked with 200 μL of a blocking buffer (1×PBS, 0.05% Tween-20, 3% BSA) at room temperature for 1 hour. After one hour, the blocking solution was aspirated out and 100 μL of biotinylated polypeptide in a binding buffer (1×PBS, 0.05% Tween-20, 0.5% BSA) at various concentrations was added to the appropriate well and incubated for 20 minutes. Peptide solution was aspirated out after 20 minutes and wells were washed 5 times with 300 μL of ELISA wash buffer. To detect the biotinylated peptide, 100 μL of streptavidin-HRP (50 ng/ml) was added to each well and incubated for 1 hour. The wells were subsequently washed 5 times with 300 μL of ELISA wash buffer. 100 μL of QuantaBlu Fluorogenic Peroxidase substrate solution was added to each well, incubated for 30 minutes and reaction stopped by adding 100 μL of stop solution. Fluorescent signal from each well was measured using a Biotek Cytation5 plate reader by exciting the fluorophore at […] and measuring emission at 420 nm. Fluorescent signals were plotted as a function of polypeptide concentration.

For test [2], the target named is T2, CYSLTR2 N-terminal disordered region peptide, MERKFMSLQPSISVSEMEPNGTFSNNNSRNCTIENFKREFFP (biotin label).
T2 construct: also called CysLT2; CysLT2r
T2 peptide: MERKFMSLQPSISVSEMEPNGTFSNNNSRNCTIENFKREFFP
As to the kind of experiment: modified sandwich ELISA, grade by the table's key. Here is the method: as §1

Test [3] deals with T3, Urotensin-2 receptor N-terminal peptide, MALTPESPSSFPGLAATGSSVPEPPGGPNATLNSSWASPTEPSSLEDLVATGTI (biotin label).
T3 construct: also called Urotensin IIR; GPCR2 (Urotensin II)
T3 peptide: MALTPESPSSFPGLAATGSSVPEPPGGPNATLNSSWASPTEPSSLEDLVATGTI
Nature of the test: modified sandwich ELISA, grade by the table's key. As for the experimental part:
as §1

The target of test [4] is T4, TNFRSF13B disordered region peptide, LPPELRRQRSGEVENNSDNSGRYQ (biotin label).
T4 construct: also called TNFRSF13B Peptide
T4 peptide: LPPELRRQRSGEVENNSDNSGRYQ
Nature of the test: modified sandwich ELISA, grade by the table's key. As for the experimental part: as §1

The target of test [5] is T5, CD74 disordered region peptide (CLIP), PPKPVSKMRMATPLLMQALPMGALP (biotin label).
T5 construct: also called CD74 Peptide
T5 peptide: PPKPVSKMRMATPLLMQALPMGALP
Nature of the test: modified sandwich ELISA, fluorescence grade by the table's key. As for the experimental part: as §1

Test [6] deals with T2, CYSLTR2 N-terminal disordered region …. As to the kind of experiment: modified sandwich ELISA (FIGS. 30A, 30B). Here is the method: as §1, with “Fluorescent signals were plotted as a function of polypeptide concentration.” left out
For test [7], the target named is T1, KAAG1 disordered region peptide, …. Nature of the test: modified sandwich ELISA, fluorescence grade by the table's key. As for the experimental part:
as §1

In test [8] the target is T2, CYSLTR2 N-terminal disordered region …. Described as above. As for the experimental part:
as §1

Test [9] shares this target. As to the kind of experiment: ELISA, fluorescence at 10000 nM peptide divided by the no-scaffold control. As for the experimental part: as §1
For test [10], the target named is T5, CD74 disordered region peptide (CLIP), …. Nature of the test: ELISA: scaffold coated on plate, biotinylated peptide titrated, streptavidin-HRP fluorescence. Here is the method:
as §1

The target in test [11] is T6, MERKFMSLQPSISVSEMEPNG (N-terminal biotin).
T6 construct: also called CYSLTR2 N-terminal 21-mer peptide
T6 peptide: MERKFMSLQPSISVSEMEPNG
As to the kind of experiment: ELISA: scaffold coated on plate, N-terminally biotinylated peptide titrated, streptavidin-HRP fluorescence. Here is the method: as §1

The target in test [12] is T7, CYSLTR2 short linear epitope peptide, SISVSEMEPNGTFSNNNSRNC (N-terminal biotin).
T7 peptide: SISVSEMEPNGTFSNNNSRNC
The description is as above. As for the experimental part:
as §1

The target of test [13] is T8, CRACM disordered region polypeptide.
T8 construct: domain: disordered region
As to the kind of experiment: modified sandwich ELISA, fluorescence grade by the table's key. As for the experimental part: as §1

Test [14] has as its target T9, 25 amino acid epitope of CLIP (CD74).
T9 construct: also called CLIP Peptide
As to the kind of experiment: BLI (Octet RED), biotinylated peptide on streptavidin sensor.
Protocol: Streptavidin sensor tips for the BLI instrument were equilibrated in an equilibration buffer (1×PBS, 0.05% Tween 20, 0.5% BSA) for 5 minutes. Biotinylated polypeptide in the equilibration buffer at 0.5 μM was loaded on the streptavidin sensor over 60 s. After substrate loading, the sensor tips were washed in the equilibrating buffer for 5 minutes to block non-specific binding and to obtain a baseline reading. Peptide loaded and blocked tips were then introduced into wells containing polypeptides in the equilibrating buffer at varying concentrations. The binding and dissociation data are fit using the OCTET software to obtain kₒₙ, koff and consequently KD, the binding affinity.

In test [15] the target is T7, CYSLTR2 short linear epitope peptide, …. As to the kind of experiment: ELISA: scaffold coated on plate, biotinylated peptide titrated, streptavidin-HRP fluorescence. Here is the method:
as §1

The target of test [16] is T10, GMERKFMSLQPSISVSEMEPNGTFSNNNSRNCTIENFKREFFP (biotinylated, position not given).
T10 construct: also called CYSLTR2 (longer peptide of the disordered region)
T10 peptide: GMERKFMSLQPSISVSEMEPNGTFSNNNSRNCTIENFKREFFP
The description is as above. As for the experimental part: as §1

For test [17], the target named is T1, KAAG1 disordered region peptide, …. The test is described as above. As for the experimental part:
as §1

For test [18], the target named is T4, TNFRSF13B disordered region peptide, …. The description is as above. Here is the method:
as §1

The target in test [19] is T11, KCNA6 short linear epitope peptide, QQQEQQPASGGGGQNGQQAMS (biotin label).
T11 construct: also called KCNA6 Peptide
T11 peptide: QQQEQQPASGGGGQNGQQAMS
The test is described as above. Here is the method:
as §1

For test [20], the target named is T12, CD40LG short linear epitope peptide, NKEETKKENSFEMQKGDQNPQIAAH (biotin label).
T12 construct: also called CD40LG Peptide
T12 peptide: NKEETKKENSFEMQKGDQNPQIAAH
The description is as above. As for the experimental part:
as §1

B1: engineered scaffold protein S084 (designed binder)
chain: IKEEHVIQQSEYYTNPDQSGEFQFDFDGDEIFHVDMAKKETVWRLEEFGRFASFEAQGALANIAVDKANLEIMTKRSNYTGDTRPRFNWQLKFECHFFNGTERVRLLERCNYNQEESVRFDSDVGEYRAVTELGRPDAEYWNSQKDLLEQRRAAVDTYCRHNYGVGESFTVQRRGGSHHHHHHLE
With B1, the binding result was “no binding (tested: <5000 (fluorescence, key))” in test [1]; “no binding (tested: <5000 (fluorescence, key))” in test [2]; “no binding (tested: <5000 (fluorescence, key))” in [3]; “no binding (tested: <5000 (fluorescence, key))” in test [4]. Besides, the fluorescent signal in [5] was over 400000 fluorescentsignal.

B2: engineered scaffold protein S090 (designed binder)
chain: IKEEHSIRQNEMYLNPDQSGLFEFHLDGQPIFRVDMQKKRTKWQLEEFGRFASFEAQGALANIAVDKANLEIMTKRSNQSEAGSHSWQLIFVCEFHEGTESVRLSERCYYNQELSVSFNSDVGEYRAVTELGRPDAEYWNSQKDLLEQRRAAVDTYCRHNYGVGESFTVQRRGGSHHHHHHLE
notes: also called scaffold v1.2; v1.2
As for B2, the “fold higher affinity compared to a non-specific protein binder” value in test [6] is over 65 fold. The binding result in test [4] is on record as “no binding (tested: <5000 (fluorescence, key))”; in test [11] it was “no binding (tested: 10000 nM)”; in test [12], “binds”. For the same molecule, the fluorescent signal in [5] is over 400000 fluorescentsignal; in test [7], 250000 to 400000 fluorescentsignal; in test [8], 250000 to 400000 fluorescentsignal. For the same molecule, the “Fold Change (Relative Binding)” value in test [9] came out at 37.2 x. Moreover, the “Relative Binding (signal over the no-scaffold control)” value in test [9] amounted to 37.2 x. In addition, the “EC50 (read off the curve)” value in [10] is about 500 nM.

B3: engineered scaffold protein S005 (designed binder)
chain: MIKEEHVIIQAEFYLNPDQSGEFMFDFDGDEIFHVDMAKKETVWRLEEFGRFASFEAQGALANIAVDKANLEIMTKRSNYTPMGDTRPRFLWQLKFECHFFNGTERVRLLERCIYNQEESVRFDSDVGEYRAVTELGRPDAEYWNSQKDLLEQRRAAVDTYCRHNYGVGESFTVQGGSHHHHHHLE
notes: Derived from MHC II; also called scaffold v1.1; v1.1
Turning to B3, the binding result is “no binding (tested: <5000 (fluorescence, key))” in [3]; “no binding (tested: <5000 (fluorescence, key))” in [4]; “binds” in [15]. The fluorescent signal in [5] is over 400000 fluorescentsignal; in [8], 100000 to 250000 fluorescentsignal; in test [13], 100000 to 250000 fluorescentsignal. This molecule gave a Kd in test [14] of 840 nM. In addition, the “Fold Change (Relative Binding)” value in [9] is 18.5 x. Further, the “Relative Binding (signal over the no-scaffold control)” value in test [9] is 18.5 x. Besides, the “EC50 (read off the curve)” value in test [10] was about 300 nM.

B4: engineered scaffold protein S177 (designed binder)
chain: B3 chain with I9N, F13Y, M24K, N63H, F96Y, L110N, Y143Q, L150H, Y161K
For the molecule B4, the fluorescent signal in [8] lay within 100000 to 250000 fluorescentsignal. Further, the binding result in [16] is given as “binds”; in test [17], “no binding (tested: 10000 nM)”; in test [18] it was “no binding (tested: 10000 nM)”; in [19] it was “no binding (tested: 10000 nM)”; in test [20], “no binding (tested: 10000 nM)”; in test [11] it was “no binding (tested: 10000 nM)”. The binding result in test [12] is given as “binds”.
